Consider 1 substance from EP0888374B1.

The target of the assay is Complement System Protein C1q (UniProt P02745). The assay is described as follows: cell-based or functional assay.
Chain of UniProt P02745 (P02745 23-245, chain 1 of 3): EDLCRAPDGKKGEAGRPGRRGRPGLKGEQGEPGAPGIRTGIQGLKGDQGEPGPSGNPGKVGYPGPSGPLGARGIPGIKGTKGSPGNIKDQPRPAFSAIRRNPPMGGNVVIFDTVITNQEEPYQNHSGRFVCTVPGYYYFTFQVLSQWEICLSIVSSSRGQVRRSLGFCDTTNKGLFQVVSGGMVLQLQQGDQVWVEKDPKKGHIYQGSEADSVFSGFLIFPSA
Chain of UniProt P02745 (P02746 28-253, chain 2 of 3, further chain): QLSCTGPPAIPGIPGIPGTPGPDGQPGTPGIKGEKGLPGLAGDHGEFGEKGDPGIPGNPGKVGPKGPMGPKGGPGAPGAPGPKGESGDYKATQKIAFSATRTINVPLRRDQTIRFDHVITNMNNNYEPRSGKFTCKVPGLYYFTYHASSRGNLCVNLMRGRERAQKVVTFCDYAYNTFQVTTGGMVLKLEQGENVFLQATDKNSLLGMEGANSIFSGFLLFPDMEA
Chain of UniProt P02745 (P02747 29-245, chain 3 of 3, further chain): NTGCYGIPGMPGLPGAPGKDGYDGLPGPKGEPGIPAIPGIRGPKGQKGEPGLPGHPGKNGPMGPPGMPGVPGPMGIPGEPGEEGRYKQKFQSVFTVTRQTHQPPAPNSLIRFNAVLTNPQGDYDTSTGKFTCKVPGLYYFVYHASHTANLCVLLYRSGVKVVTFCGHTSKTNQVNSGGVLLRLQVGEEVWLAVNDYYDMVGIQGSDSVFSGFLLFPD

The substance “BSA-anti-BSA Immune Complexes (from UniProt P02769 25-607)” showed a [4d] µg (Class.) of 8 µg.
